The record followed here is the supplement of paper PMC10126150.

The data set relates to ATP. Nature of the data set: switch fluorescence ratio, 500 uM ATP over buffer (Cy3 cluster intensity, sum of 5 cycles each) (fold (ratio)); higher = stronger signal-on switching upon ATP binding; sequences stand for … in TCGTCGGCAGCGTCAGATGTGTATAAGAGACAGTTTTTTTTTTTTTTTTTTTTTTTTT…TC. The conditions noted are these: aptamer strand: ATP DNA aptamer (quencher-CACCTGGGGGAGTATTGCGGAGGAAGG + anchor), 100 nM annealed; ATP concentration: 500 uM. An outline of the steps:
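Between each of five buffer/ATP cycles, the flow-cell was stripped with NaOH and re-annealed. Each cycle imaged Cy3-labelled switching-strand clusters, annealed to 100 nM quencher-labelled ATP aptamer on a modified Illumina MiSeq flow-cell, first in selection buffer and then after 15 min with 500 uM ATP at 22 °C. The fluorescence ratio is summed target-cycle over summed buffer-cycle Cy3 intensity per cluster, averaged per switch-domain sequence, with clusters outside 100-1000 RFU excluded.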

± gives the standard deviation of the averaged measurements.
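Note: ATP exposure 15 min at 22 °C before imaging.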

As for ATTAAAGGTC, the switch fluorescence ratio came to 1 ± 0.02.

For the sequence ACTGTTTCTC, the switch fluorescence ratio was 0.996 ± 0.022.

Take TTTTAATCAG: the switch fluorescence ratio was 0.9842 ± 0.0036.

As for CCAAATCAGA, the switch fluorescence ratio worked out at 0.986 ± 0.021.

Regarding CGGCTTAGTA, the switch fluorescence ratio amounted to 0.988 ± 0.062.

As to TAAAAGGTTT, the switch fluorescence ratio was 1 ± 0.032.

Consider AGGTTCTCGG, for which the switch fluorescence ratio is 0.967 ± 0.026.

As for CATGGGAAGT, the switch fluorescence ratio came out at 1.01 ± 0.035.

As for ATGGTGTCTA, the switch fluorescence ratio turned out to be 0.981 ± 0.038.

TGTTTTTGGA: the switch fluorescence ratio was 1 ± 0.026.

In the case of GTTTGATCAG, the switch fluorescence ratio was determined as 0.941 ± 0.011.

In the case of GGAGGAAGTA, the switch fluorescence ratio was determined as 1.03 ± 0.044.

For ATTCACACGC, the switch fluorescence ratio is 1.06 ± 0.017.

TAGCAGGGTG: the switch fluorescence ratio stood at 1.14 ± 0.019.

As to TCCTAGAAC, the switch fluorescence ratio came to 0.997 ± 0.026.

For the sequence CAGGGGCGCA, the switch fluorescence ratio was found to be 1 ± 0.075.

As to GAGCGCTAGG, the switch fluorescence ratio amounted to 0.9952 ± 0.0043.

On to CGGGGGTGGC, for which the switch fluorescence ratio was determined as 0.984 ± 0.029.

For ACATCTGACA, the switch fluorescence ratio was determined as 1.06 ± 0.019.

Consider ACTGGTTTGG, for which the switch fluorescence ratio amounted to 1.04 ± 0.063.

Turning to CCGACTAAAA, the switch fluorescence ratio was 4.27 ± 0.41.

As to GGGGGAGACA, the switch fluorescence ratio stood at 0.997 ± 0.027.

On to GTTTTAGCGG, for which the switch fluorescence ratio worked out at 0.964 ± 0.027.

TGGGTGGCAA: the switch fluorescence ratio came out at 1.03 ± 0.05.

TTTTGGCCGG: the switch fluorescence ratio was 1.05 ± 0.035.

Turning to AAGTGGATTG, the switch fluorescence ratio turned out to be 1.003 ± 0.01.

In the case of GAGGAAGGAA, the switch fluorescence ratio stood at 1.04 ± 0.062.

For the sequence AAAATGATGG, the switch fluorescence ratio was 1 ± 0.0073.

In the case of GGTGTAGCTA, the switch fluorescence ratio turned out to be 0.981 ± 0.061.

On to AGGGGTAGTT, for which the switch fluorescence ratio stood at 1.01 ± 0.029.

Regarding ACAAACGGCA, the switch fluorescence ratio was determined as 1.33 ± 0.024.

As to AGCAGAGGGA, the switch fluorescence ratio came to 1.01 ± 0.011.

For CAGGTGCGGG, the switch fluorescence ratio turned out to be 1.1694 ± 0.0009.

In the case of TTAGTGCTCC, the switch fluorescence ratio was determined as 1.039 ± 0.0018.

With CGAAATCATC, the switch fluorescence ratio is 1.063 ± 0.0053.

As for GGTTTTAGTG, the switch fluorescence ratio came out at 0.967 ± 0.037.

For GTTAGGCGGT, the switch fluorescence ratio turned out to be 1.01 ± 0.014.

As to GAAGACGGGA, the switch fluorescence ratio stood at 1.01 ± 0.045.

In the case of ATTATACTTC, the switch fluorescence ratio amounted to 1.04 ± 0.013.

Turning to AGGGCGTCTA, the switch fluorescence ratio was 1.015 ± 0.003.

As for GCGCTGGTTA, the switch fluorescence ratio was found to be 0.9941 ± 0.0027.

Turning to AAACATATAT, the switch fluorescence ratio came out at 1.018 ± 0.0098.

Consider TGGGCCAAGC, for which the switch fluorescence ratio turned out to be 0.995 ± 0.025.

For the sequence AGTAGGAGCT, the switch fluorescence ratio worked out at 0.962 ± 0.026.

As to ATCACAGCTA, the switch fluorescence ratio was found to be 1.04 ± 0.017.

GATTATGAGT: the switch fluorescence ratio was 1.02 ± 0.018.

For CAAAAAGCGT, the switch fluorescence ratio was determined as 0.9786 ± 0.0056.

Turning to CTTCTTGTGG, the switch fluorescence ratio is 0.9925 ± 0.009.

On to CATATATTGG, for which the switch fluorescence ratio is 1.02 ± 0.05.

CTGTGTGCAG: the switch fluorescence ratio is 1.01 ± 0.034.

Consider AGGTCGCGGT, for which the switch fluorescence ratio was found to be 0.994 ± 0.025.

As to CGCTTTGACT, the switch fluorescence ratio stood at 1.08 ± 0.021.

In the case of ATTTTAGGCA, the switch fluorescence ratio turned out to be 0.996 ± 0.039.

Regarding GAATGTGGGT, the switch fluorescence ratio was determined as 0.994 ± 0.013.

On to TAGCTCATTA, for which the switch fluorescence ratio was 0.979 ± 0.019.

With AACGGGTCTG, the switch fluorescence ratio is 1.01 ± 0.039.

With TTAAGAAAAG, the switch fluorescence ratio amounted to 1.1 ± 0.065.

Regarding TGGCGTTTAC, the switch fluorescence ratio worked out at 1.46 ± 0.64.

In the case of CAACGTATTT, the switch fluorescence ratio is 1.113 ± 0.002.

In the case of TTACAAGACG, the switch fluorescence ratio amounted to 1.032 ± 0.0049.

On to AGGTGCATAC, for which the switch fluorescence ratio was 1.45 ± 0.32.

For the sequence CAAAAAAAAG, the switch fluorescence ratio amounted to 1.03 ± 0.023.

Take AAATAGGCA: the switch fluorescence ratio came out at 0.981 ± 0.017.

In the case of TTATTGGGAC, the switch fluorescence ratio was determined as 0.972 ± 0.02.

Consider GGATTTGTGG, for which the switch fluorescence ratio came out at 0.978 ± 0.023.

Consider TAGGGTCTCA, for which the switch fluorescence ratio stood at 1 ± 0.031.

Turning to TTTTAGAGGA, the switch fluorescence ratio is 0.9736 ± 0.0013.

For GGTATGGAGT, the switch fluorescence ratio was found to be 1.013 ± 0.0057.

As to TTTCACGAAT, the switch fluorescence ratio was determined as 0.993 ± 0.015.

For GCAATGTAGG, the switch fluorescence ratio stood at 1.04 ± 0.03.

Turning to AAGTGGTGGT, the switch fluorescence ratio was 0.989 ± 0.011.

As to GCTTATGCGG, the switch fluorescence ratio was 0.949 ± 0.014.

For TGACAGACAT, the switch fluorescence ratio is 1.1 ± 0.027.

Consider TTATTCGGTA, for which the switch fluorescence ratio was found to be 0.9978 ± 0.0065.

With GTATGGGTGG, the switch fluorescence ratio is 1 ± 0.024.

For TATTGAATTC, the switch fluorescence ratio turned out to be 1.01 ± 0.016.

On to AAGTGTTGTC, for which the switch fluorescence ratio was found to be 1.1 ± 0.033.

For CAATTATTCG, the switch fluorescence ratio came out at 1.04 ± 0.052.

Regarding ACGGGTTGGC, the switch fluorescence ratio came to 1.064 ± 0.0044.

AACGAAAAGT: the switch fluorescence ratio stood at 0.996 ± 0.012.

GGCATGAGAC: the switch fluorescence ratio was determined as 1.06 ± 0.047.

For TCAACTATTA, the switch fluorescence ratio was 0.977 ± 0.018.

In the case of AAAATGTGTT, the switch fluorescence ratio was 1.01 ± 0.018.

AGGGGCTTCG: the switch fluorescence ratio came out at 1.04 ± 0.015.

With TCTATAAGTT, the switch fluorescence ratio is 1.02 ± 0.044.

Take TTGATGCTCT: the switch fluorescence ratio came out at 1.21 ± 0.28.

Take AGTAGCGTCG: the switch fluorescence ratio turned out to be 0.985 ± 0.048.

Consider CACCACGTGG, for which the switch fluorescence ratio was 1.01 ± 0.018.

As to ACGTTCGGCG, the switch fluorescence ratio amounted to 0.9968 ± 0.0021.

Regarding AACGTTCGCG, the switch fluorescence ratio was 1.03 ± 0.032.

Regarding AAAAACATAG, the switch fluorescence ratio stood at 1.03 ± 0.017.

For ACAGTTATTG, the switch fluorescence ratio is 1.016 ± 0.0077.

Take CGTATTACAC: the switch fluorescence ratio came to 1.045 ± 0.0033.

As to CGTACGGGTG, the switch fluorescence ratio worked out at 1 ± 0.014.

Consider CGGTGGGGCG, for which the switch fluorescence ratio was 1 ± 0.034.

Consider AGGTCTACTA, for which the switch fluorescence ratio came to 1.05 ± 0.059.

As for TCTCTGAATC, the switch fluorescence ratio was 1.24 ± 0.079.

As to GAAACTTGAC, the switch fluorescence ratio amounted to 1.61 ± 0.039.

As to AGACTCTGGT, the switch fluorescence ratio was determined as 0.969 ± 0.015.

For GTATGAGTCG, the switch fluorescence ratio came out at 1.01 ± 0.085.

For CGTATGGTTC, the switch fluorescence ratio amounted to 0.996 ± 0.031.

On to TGTGTGGGAC, for which the switch fluorescence ratio was 0.988 ± 0.025.

Turning to TCTCATTCTT, the switch fluorescence ratio stood at 1.03 ± 0.028.

Take CTTGGGGGCT: the switch fluorescence ratio amounted to 1.002 ± 0.0097.

For the sequence AGTTGCGTTG, the switch fluorescence ratio worked out at 0.996 ± 0.015.

Turning to GGGGGCACG, the switch fluorescence ratio was determined as 1.006 ± 0.0098.

On to TGTGGTTTGT, for which the switch fluorescence ratio was 1 ± 0.035.

In the case of AAGAGAACGG, the switch fluorescence ratio was 1.04 ± 0.091.

Take TCTCTATCCG: the switch fluorescence ratio is 0.997 ± 0.046.

As for CAAGTAATTG, the switch fluorescence ratio came out at 1.025 ± 0.0088.

Consider ATAAGGGGAT, for which the switch fluorescence ratio stood at 0.983 ± 0.023.

Consider CTATAATCTA, for which the switch fluorescence ratio came out at 0.976 ± 0.041.

For CTTAGAAGAT, the switch fluorescence ratio is 0.983 ± 0.044.

In the case of TGGCAGAGGC, the switch fluorescence ratio is 1.04 ± 0.038.

Turning to CGGGGAGTAA, the switch fluorescence ratio came out at 1.01 ± 0.012.

With ATTCAGATCT, the switch fluorescence ratio came to 1 ± 0.034.

In the case of TTGGTTCAGC, the switch fluorescence ratio worked out at 1.05 ± 0.028.

Take CAGGCGAGTG: the switch fluorescence ratio was 0.96 ± 0.014.

CAGGGTTGGT: the switch fluorescence ratio was 0.977 ± 0.033.

In the case of GTTGATTTTG, the switch fluorescence ratio came to 0.981 ± 0.042.

For CTTTTTGCAT, the switch fluorescence ratio stood at 1.02 ± 0.013.

As for TTACGACCGG, the switch fluorescence ratio came to 1.01 ± 0.032.

On to TATAGGGGGG, for which the switch fluorescence ratio amounted to 1 ± 0.017.
